Reference: patent US20260209350A1 (Alector, published 2026)
Positions count from the first letter of the chain named.

T1: human monomeric His tagged TREM2 protein (human, UniProt Q9NZC2 19-174)
T1 construct: also called hTREM2-HIS
T1 sequence: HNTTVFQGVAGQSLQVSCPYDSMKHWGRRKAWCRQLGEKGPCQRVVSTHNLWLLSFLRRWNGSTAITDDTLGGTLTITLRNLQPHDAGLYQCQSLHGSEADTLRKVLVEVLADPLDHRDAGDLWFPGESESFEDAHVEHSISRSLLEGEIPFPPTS

T2: mouse TREM2 Fc fusion protein (mouse, UniProt Q99NH8 19-171)
T2 construct: also called mTREM2-Fc; not shown: Fc part not specified
T2 sequence (looked up): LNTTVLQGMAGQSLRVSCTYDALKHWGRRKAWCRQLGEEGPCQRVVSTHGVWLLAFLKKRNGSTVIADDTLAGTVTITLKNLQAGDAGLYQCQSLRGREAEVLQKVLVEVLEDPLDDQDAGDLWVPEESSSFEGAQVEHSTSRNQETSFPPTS

T3: human TREM2 Fc fusion protein (human, UniProt Q9NZC2 19-174)
T3 construct: also called hTREM2-Fc; not shown: Fc part not specified
T3 sequence: T1 sequence

T4: mouse TREM2 on cells (mouse, UniProt Q99NH8 19-227)
T4 construct: whole, on cells; Used for the recombinant protein on BWZ/BW cells (with mouse DAP12) and for the native protein on mouse macrophages and dendritic cells; the cell type stands under assay; also called mTREM2; mTrem2
T4 sequence (looked up): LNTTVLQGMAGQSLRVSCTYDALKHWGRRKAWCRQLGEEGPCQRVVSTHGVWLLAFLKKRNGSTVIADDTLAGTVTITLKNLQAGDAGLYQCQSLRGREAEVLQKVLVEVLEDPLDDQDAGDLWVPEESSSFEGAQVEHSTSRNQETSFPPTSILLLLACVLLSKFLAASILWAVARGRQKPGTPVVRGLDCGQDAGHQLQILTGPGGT

B1: Ab11 (antibody, human IgG1, V domains shown)
VH: EVQLVQSGAEVKKPGESLKISCKGSGYSFTTYWIGWVRQMPGKGLEWMGIIYPGDSDTRYSPSFQGQVTISADKSISTAYLQWSSLKASDTAMYYCARAGHYDGGHLGMDVWGQGTTVTVSS
VL: EIVLTQSPGTLSLSPGERATLSCRASQSVSSDYLAWYQQKPGQAPRLLIYGASSRATGIPDRFSGSGSGTDFTLTISRLEPEDFAVYYCQQDYSYPWTFGGGTKVEIK
notes: human IgG1
B2: Ab20 (antibody, human IgG1, V domains shown)
VH: QVQLQESGPGLVKPSETLSLTCTVSGGSISSYYWSWIRQPPGKGLEWIGSIYYSGSTNYNPSLKSRVTISVDTSKNQFSLKLSSVTAADTAVYYCARSGMASFFDYWGQGTLVTVSS
VL: B1 VL with D92F, Y93S, Y95H, W97F
notes: human IgG1
B3: Ab18 (antibody, human IgG1, V domains shown)
VH: QVQLQESGPGLVKPSETLSLTCTVSGGSISSYYWSWIRQPPGKGLEWIGSIYYSGSTNYNPSLKSRVTISVDTSKNQFSLKLSSVTAADTAVYYCARDGGGEYPSGTPFDIWGQGTMVTVSS
VL: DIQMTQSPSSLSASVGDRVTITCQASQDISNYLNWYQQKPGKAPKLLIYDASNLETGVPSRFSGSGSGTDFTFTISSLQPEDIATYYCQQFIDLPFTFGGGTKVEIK
notes: human IgG1
B4: Ab19 (antibody, human IgG1, V domains shown)
VH: B3 VH
VL: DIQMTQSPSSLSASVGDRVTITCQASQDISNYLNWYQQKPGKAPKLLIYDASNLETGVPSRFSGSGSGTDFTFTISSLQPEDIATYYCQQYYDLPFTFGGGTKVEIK
notes: human IgG1
B5: Ab4 (antibody, human IgG1, V domains shown)
VH: QVQLVQSGAEVKKPGSSVKVSCKASGGTFSSYAISWVRQAPGQGLEWMGGIIPIFGTASYAQKFQGRVTITADESTSTAYMELSSLRSEDTAVYYCARGVDSIMDYWGQGTLVTVSS
VL: EIVMTQSPATLSVSPGERATLSCRASQSVSSNLAWYQQKPGQAPRLLIYSASTRATGIPARFSGSGSGTEFTLTISSLQSEDFAVYYCQQDHDYPFTFGGGTKVEIK
notes: human IgG1
B6: Ab12 (antibody, human IgG1, V domains shown)
VH: EVQLVQSGAEVKKPGESLKISCKGSGYSFTSYWIGWVRQMPGKGLEWMGIIYPGDSDTRYSPSFQGQVTISADKSISTAYLQWSSLKASDTAMYYCARLGHYSGTVSSYGMDVWGQGTTVTVSS
VL: DIQMTQSPSSLSASVGDRVTITCRASQSISSYLNWYQQKPGKAPKLLIYAASSLQSGVPSRFSGSGSGTDFTLTISSLQPEDFATYYCQQEYAVPYTFGGGTKVEIK
notes: human IgG1
B7: Ab54 (antibody, human IgG1, V domains shown)
VH: QVQLVQSGAEVKKPGASVKVSCKASGYTFTSYYMHWVRQAPGQGLEWMGIINPSGGSTSYAQKFQGRVTMTRDTSTSTVYMELSSLRSEDTAVYYCARGPGYTTALDYYYMDVWGKGTTVTVSS
VL: B6 VL with S30N, E91S, Y92D, A93D, V94D, Y96F
notes: human IgG1
B8: Ab34 (antibody, human IgG1, V domains shown)
VH: QVQLVESGGGVVQPGRSLRLSCAASGFTFSSYGMHWVRQAPGKGLEWVAVISYDGSNKYYADSVKGRFTISRDNSKNTLYLQMNSLRAEDTAVYYCARDRGGEYVDFAFDIWGQGTMVTVSS
VL: B6 VL with E91S, Y92D, A93F, V94P, Y96W
notes: human IgG1
B9: Ab51 (antibody, human IgG1, V domains shown)
VH: QVQLVQSGAEVKKPGASVKVSCKASGYTFTSYYMHWVRQAPGQGLEWMGIINPSGGSTSYAQKFQGRVTMTRDTSTSTVYMELSSLRSEDTAVYYCARGVGGQDYYYMDVWGKGTTVTVSS
VL: DIQMTQSPSSLSASVGDRVTITCRASQSISSYLNWYQQKPGKAPKLLIYAASSLQSGVPSRFSGSGSGTDFTLTISSLQPEDFATYYCQQFDDVFTFGGGTKVEIK
notes: human IgG1
B10: Ab64 (antibody, human IgG1, V domains shown)
VH: EVQLVQSGAEVKKPGESLKISCKGSGYSFTSYWIGWVRQMPGKGLEWMGIIYPGDSDTRYSPSFQGQVTISADKSISTAYLQWSSLKASDTAMYYCARLGRWSSGSTAFDIWGQGTMVTVSS
VL: EIVMTQSPATLSVSPGERATLSCRASQSVSSNLAWYQQKPGQAPRLLIYGASTRATGIPARFSGSGSGTEFTLTISSLQSEDFAVYYCQQDDDGYTFGGGTKVEIK
notes: human IgG1
B11: Ab10 (antibody, human IgG1, V domains shown)
VH: B10 VH with Y32N, L99E, G100A, R101G, W102Y, S103D, S104Y, S106E, T107L
VL: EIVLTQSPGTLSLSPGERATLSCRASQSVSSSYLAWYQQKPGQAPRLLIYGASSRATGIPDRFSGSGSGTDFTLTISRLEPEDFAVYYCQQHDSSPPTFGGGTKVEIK
notes: human IgG1
B12: Ab13 (antibody, human IgG1, V domains shown)
VH: QVQLVQSGAEVKKPGASVKVSCKASGYTFTSYGISWVRQAPGQGLEWMGWISAYNGNTNYAQKLQGRVTMTTDTSTSTAYMELRSLRSDDTAVYYCARGPSHYYDLAWGQGTLVTVSS
VL: EIVLTQSPATLSLSPGERATLSCRASQSVSSYLAWYQQKPGQAPRLLIYDASNRATGIPARFSGSGSGTDFTLTISSLEPEDFAVYYCQQVSNYPITFGGGTKVEIK
notes: human IgG1
B13: Ab6 (antibody, human IgG1, V domains shown)
VH: QVQLVQSGAEVKKPGASVKVSCKASGYTFTSYYMHWVRQAPGQGLEWMGIINPGGGSTSYAQKFQGRVTMTRDTSTSTVYMELSSLRSEDTAVYYCARGSPTYGYLYDPWGQGTLVTVSS
VL: B12 VL with N53K, V91R, S92V, Y94L, I96P
notes: human IgG1
B14: Ab33 (antibody, human IgG1, V domains shown)
VH: QVQLVESGGGVVQPGRSLRLSCAASGFTFSSYGMHWVRQAPGKGLEWVAVISYDGSNKYYADSVKGRFTISRDNSKNTLYLQMNSLRAEDTAVYYCARAGGHLFDYWGQGTLVTVSS
VL: B12 VL with V91D, N93S, Y94F, I96P
notes: human IgG1
B15: Ab26 (antibody, human IgG1, V domains shown)
VH: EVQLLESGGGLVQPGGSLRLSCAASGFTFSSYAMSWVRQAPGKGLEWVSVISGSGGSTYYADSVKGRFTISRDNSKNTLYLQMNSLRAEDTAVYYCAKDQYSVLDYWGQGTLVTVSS
VL: B12 VL with V91E, S92F, N93D, Y94L, I96F
notes: human IgG1
B16: Ab62 (antibody, human IgG1, V domains shown)
VH: EVQLVQSGAEVKKPGESLKISCKGSGYSFTSYWIGWVRQMPGKGLEWMGIIYPGDSDTRYSPSFQGQVTISADKSISTAYLQWSSLKASDTAMYYCARAGHYDDWSGLGLDVWGQGTMVTVSS
VL: B12 VL with N53K, V91S, N93V, Y94H, I96Y
notes: human IgG1
B17: Ab31 (antibody, human IgG1, V domains shown)
VH: QVQLVESGGGVVQPGRSLRLSCAASGFTFSSYGMHWVRQAPGKGLEWVALIWYDGSNKYYADSVKGRFTISRDNSKNTLYLQMNSLRAEDTAVYYCARRRDGYYDEVFDIWGQGTMVTVSS
VL: DIQLTQSPSSLSASVGDRVTITCQASQDISNFLNWYQQKPGKAPKLLIYDASNLETGVPSRFSGSGSGTDFTFTISSLQPEDIATYYCQQPVDLPFTFGGGTKVEIK
notes: human IgG1
B18: Ab72 (antibody, human IgG1, V domains shown)
VH: B2 VH with M100T, A101E, S102T, F103L
VL: B17 VL with L4M, S30T, F32Y, G66R, P91D, D93N, L94Y, F96P
notes: human IgG1
B19: Ab3 (antibody, human IgG1, V domains shown)
VH: QVQLVQSGAEVKKPGSSVKVSCKASGGTFSSYAISWVRQAPGQGLEWMGGIIPIFGTANYAQKFQGRVTITADESTSTAYMELSSLRSEDTAVYYCAREQYHVGMDVWGKGTTVTVSS
VL: B17 VL with L4M, F32Y, E55A, V92F, D93N, L94F, F96Y
notes: human IgG1

How the values were obtained:
[1] = biological target: T1, human monomeric His tagged TREM2 protein; assay: ForteBio or MSD-SET, monovalent
[2] = biological target: T2, mouse TREM2 Fc fusion protein; assay: ForteBio or MSD-SET, avid
[3] = biological target: T3, human TREM2 Fc fusion protein; assay: ForteBio or MSD-SET, avid
mouse TREM2 on cells = biological target: T4, mouse TREM2 on cells; assay: FACS, mTrem2 cells

| Binder | Kd [1] [nM] | Kd [2] [nM] | Kd [3] [nM] | MFI (mouse TREM2 on cells) [MFI] | binding result [2] |
| --- | --- | --- | --- | --- | --- |
| B1 | 7.2 | 1.19 | 0.934 | 5500 |  |
| B2 | 3.62 |  | 0.658 | 11200 |  |
| B3 | 6.77 |  | 0.513 | 5160 |  |
| B4 | 4.49 |  | 0.465 | 2300 |  |
| B5 |  |  | 0.971 | 295 | no binding |
| B6 | 2.68 | 7.91 | 1.19 | 1550 |  |
| B7 | 3.02 |  | 0.5 |  |  |
| B8 | 27 |  | 0.706 |  | no binding |
| B9 | 1.64 |  | 0.284 |  |  |
| B10 | 65.7 |  | 0.945 | 8680 |  |
| B11 | 4.79 |  | 0.544 | 11500 |  |
| B12 | 66.7 | 1.71 | 1.49 | 3250 |  |
| B13 |  | 8.51 | 4.44 | 228 |  |
| B14 | 16 |  | 1.42 |  | no binding |
| B15 | 3.6 |  | 0.481 |  |  |
| B16 | 14.2 |  | 0.772 | 4750 |  |
| B17 | 6.82 |  | 0.451 |  | no binding |
| B18 | 29.4 |  | 0.839 | 3750 |  |
| B19 | 14.2 |  | 0.49 |  | no binding |
